Results taken from patent US20120316325, “DNA APTAMER […] BINDING TO pLDH (PLASMODIUM LACTATE DEHYDROGENASE)” (POSTECH ACADEMY-INDUSTRY FOUNDATION, published 2012).

How the values were obtained:
[1] = target: T1, pvLDH (Plasmodium vivax lactate dehydrogenase) (Plasmodium vivax, UniProt Q4PRK9 Q4PRK9:1-316)
[2] = target: pfLDH (Plasmodium falciparum lactate dehydrogenase) (Plasmodium falciparum, UniProt Q27743 Q27743:1-316); experiment: fluorescence bead assay, same buffer; binding also seen by EMSA; conditions: chain copies: 4 inferred; label: FAM (fluorescence assay); Loop 1, G-C rich stem, Loop 2 (Mfold)
Experimental: A mixture of 16 μg of pvLDH and 10 μL of magnetic beads was incubated for one hour in 100 μL of binding buffer (20 mM Tris, 50 mM NaCl, 5 mM KCl, 5 mM MgCl2, pH 8.0), followed by washing twice with the binding buffer to remove unbound pvLDH. Then, the beads were incubated for one hour with various concentrations of FAM-labeled aptamers. The aptamers which were not reacted with pvLDH were removed by washing.
Only the FAM-labeled ssDNA aptamer which was bound to pvLDH immobilized to the magnetic beads was separated using a magnet and quantitatively analyzed by fluorescence assay (1420 Victor multilabel counter, PerkinElmer, USA). […] Kd values were also determined for pfLDH in the same manner.

[3] = target: T1, pvLDH (Plasmodium vivax lactate …); experiment: EMSA; conditions: tags: (His)6-tag, pET28a, E. coli BL21(DE3); chain copies: 4 inferred

GTTCGATTGGATTGTGCCGGAAGTGCTGGCTCGAAC (ssDNA) [Aptamer #1]
Kd [1]: 16.8 nM | Kd [2]: 38.7 nM

GTTCGACCAAATTGTGCCGGAAGTGCTGGCTCGAAC (ssDNA) [Aptamer #1 loop 1 mutant]
binding result [3]: no binding

GTTCGATTGGATTGTGCCGGAGACGCTGGCTCGAAC (ssDNA) [Aptamer #1 loop 2 mutant]
binding result [3]: no binding

GAACTCATTGGCTGGAGGCGGCAGTACCGCTTGAGTTC (ssDNA) [Aptamer #2]
Kd [1]: 31.7 nM | Kd [2]: 49.6 nM
